“Also recorded” adds a separate entry of the source.
Biological target: T1, NarX (Escherichia coli, UniProt P0AFA2, T450I/V366A)
T1 construct: All genes were; made in house; host or cells: cell-free expression in situ, myTXTL E. coli extract (Arbor Biosciences), with synthetic lipid vesicles
Assay: Cell-free NarX-L system encapsulated in giant unilamellar vesicles
Format: biochemical, E. coli
Conditions: GUV-encapsulated NarX-L, nitrate dependent signaling (FIG. 16)
Source text: Over the last decade, many promising cell-free systems have been developed, enabling the delivery and sensing of a wide array of ligands in non-ideal environments. Cell-free systems have been encapsulated and administered to mice (47), lyophilized and used in resource limited settings (6, 7), and integrated into wearable materials to sense environmental contaminants (8). Towards the goal of creating cell-mimetic particles which can sense environmental stimuli in complex environments, such as the body, we encapsulated our cell-free system into giant unilamellar vesicles using the emulsion transfer method (FIG. 5A). We encapsulated cell-free extract containing plasmids encoding NarX, NarL, and the downstream protein (luciferase or mEGFP) into membranes composed of 1 POPC: 1 cholesterol and a rhodamine conjugated lipid. We hypothesized that by encapsulating cell-free reaction components into vesicles, NarX could insert into membranes and initiate signaling in response to exogenously added nitrate. […]
For samples containing the luciferase plasmid, 0.5 μL of NanoGlo Luciferase substrate was added to the reaction, and reactions were read on a Molecular Devices Spectra Max i3 plate reader. […] Images were analyzed using the Nikon NIS software.

T1 sequence (P0AFA2 other isoform, or with tags, fused parts or gaps V366A/T450I): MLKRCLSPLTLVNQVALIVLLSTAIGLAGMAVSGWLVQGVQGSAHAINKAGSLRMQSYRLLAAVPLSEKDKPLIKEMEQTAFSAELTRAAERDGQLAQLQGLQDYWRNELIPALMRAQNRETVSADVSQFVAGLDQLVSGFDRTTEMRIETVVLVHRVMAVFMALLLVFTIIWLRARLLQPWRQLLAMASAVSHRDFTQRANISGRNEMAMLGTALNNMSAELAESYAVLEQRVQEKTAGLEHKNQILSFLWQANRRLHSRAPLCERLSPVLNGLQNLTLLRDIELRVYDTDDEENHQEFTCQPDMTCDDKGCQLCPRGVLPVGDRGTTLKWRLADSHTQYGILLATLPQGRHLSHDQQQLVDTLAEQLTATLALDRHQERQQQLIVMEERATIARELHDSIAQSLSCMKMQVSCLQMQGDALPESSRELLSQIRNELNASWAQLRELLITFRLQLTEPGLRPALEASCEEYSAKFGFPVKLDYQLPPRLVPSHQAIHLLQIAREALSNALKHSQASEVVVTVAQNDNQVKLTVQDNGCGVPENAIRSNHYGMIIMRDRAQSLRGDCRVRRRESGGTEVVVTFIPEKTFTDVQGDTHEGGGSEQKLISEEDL

B1: Proteinase K: protease added to the outside of vesicles (protein, UniProt P06873 106-384, looked up)
Proteinase K: AAQTNAPWGLARISSTSPGTSTYYYDESAGQGSCVYVIDTGIEASHPEFEGRAQMVKTYYYSSRDGNGHGTHCAGTVGSRTYGVAKKTQLFGVKVLDDNGSGQYSTIIAGMDFVASDKNNRNCPKGVVASLSLGGGYSSSVNSAAARLQSSGVMVAVAAGNNNADARNYSPASEPSVCTVGASDRYDRRSSFSNYGSVLDIFGPGTSILSTWIGGSTRSISGTSMATPHVAGLAAYLMTLGKTTAASACRYIADTANKGDLSNIPFGTVNLLAYNNYQA
  effect on encapsulated TCS signaling when added outside of vesicles: signaling was inhibited; also recorded: is inhibited

— US20250137032A1, “TWO-COMPONENT SYSTEMS FOR USE IN CELL-FREE GENE EXPRESSION” (priority 2023, published 2025)
